Test results: publication PMC11257539

Biological target: full-length human VARP with a C-terminal 10xHis tag (human) (UniProt Q96NW4)
Test: BLI

Sequence of full-length human VARP with a C-terminal 10xHis tag (human) (Q96NW4 whole entry): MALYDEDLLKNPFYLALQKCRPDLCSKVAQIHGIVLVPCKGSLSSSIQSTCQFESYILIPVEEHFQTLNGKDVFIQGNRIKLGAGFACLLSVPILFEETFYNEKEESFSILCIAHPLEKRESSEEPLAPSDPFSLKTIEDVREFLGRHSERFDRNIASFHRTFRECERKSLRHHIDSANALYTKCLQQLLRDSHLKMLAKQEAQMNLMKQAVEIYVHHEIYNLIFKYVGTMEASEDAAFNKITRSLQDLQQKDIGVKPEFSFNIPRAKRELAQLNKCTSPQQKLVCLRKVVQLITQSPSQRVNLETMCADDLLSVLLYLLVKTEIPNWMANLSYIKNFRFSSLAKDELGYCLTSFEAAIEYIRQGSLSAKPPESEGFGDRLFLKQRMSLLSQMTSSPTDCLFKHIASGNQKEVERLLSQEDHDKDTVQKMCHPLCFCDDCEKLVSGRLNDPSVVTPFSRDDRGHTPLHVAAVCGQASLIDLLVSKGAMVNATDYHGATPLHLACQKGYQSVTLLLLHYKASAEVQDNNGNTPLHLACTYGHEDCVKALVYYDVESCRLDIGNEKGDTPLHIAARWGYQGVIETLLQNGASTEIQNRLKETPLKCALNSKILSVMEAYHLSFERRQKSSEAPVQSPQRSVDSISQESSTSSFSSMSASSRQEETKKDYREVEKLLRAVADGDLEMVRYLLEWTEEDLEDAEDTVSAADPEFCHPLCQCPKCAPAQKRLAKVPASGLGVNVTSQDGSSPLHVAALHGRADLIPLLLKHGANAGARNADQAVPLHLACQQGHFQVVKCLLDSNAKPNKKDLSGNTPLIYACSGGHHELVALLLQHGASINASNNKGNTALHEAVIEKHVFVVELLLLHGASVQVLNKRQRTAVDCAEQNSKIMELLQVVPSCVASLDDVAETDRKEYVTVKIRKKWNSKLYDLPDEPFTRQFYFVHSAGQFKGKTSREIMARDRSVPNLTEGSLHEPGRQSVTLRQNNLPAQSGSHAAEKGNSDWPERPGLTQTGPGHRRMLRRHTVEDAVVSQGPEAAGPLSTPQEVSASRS

Question: Which results are given for “Retromer heterotrimer (VPS26/VPS35/VPS29 subunits) (from UniProt O75436;Q96QK1;Q9UBQ0) (complex)”?
Answer: ka1: 5040 M⁻¹ s⁻¹; ka2: 0.0535 M⁻¹ s⁻¹; kdis1: 0.000363 s⁻¹; kdis2: 0.00891 s⁻¹
